Experimental data as given in paper PMC4624954, “Delineating the Tes Interaction Site in Zyxin and Studying Cellular Effects of Its Disruption” (PLoS ONE, 2015).

Target: T1, Zyx FL WT-GFP (human, UniProt Q15942 1-572)
T1 sequence (looked up): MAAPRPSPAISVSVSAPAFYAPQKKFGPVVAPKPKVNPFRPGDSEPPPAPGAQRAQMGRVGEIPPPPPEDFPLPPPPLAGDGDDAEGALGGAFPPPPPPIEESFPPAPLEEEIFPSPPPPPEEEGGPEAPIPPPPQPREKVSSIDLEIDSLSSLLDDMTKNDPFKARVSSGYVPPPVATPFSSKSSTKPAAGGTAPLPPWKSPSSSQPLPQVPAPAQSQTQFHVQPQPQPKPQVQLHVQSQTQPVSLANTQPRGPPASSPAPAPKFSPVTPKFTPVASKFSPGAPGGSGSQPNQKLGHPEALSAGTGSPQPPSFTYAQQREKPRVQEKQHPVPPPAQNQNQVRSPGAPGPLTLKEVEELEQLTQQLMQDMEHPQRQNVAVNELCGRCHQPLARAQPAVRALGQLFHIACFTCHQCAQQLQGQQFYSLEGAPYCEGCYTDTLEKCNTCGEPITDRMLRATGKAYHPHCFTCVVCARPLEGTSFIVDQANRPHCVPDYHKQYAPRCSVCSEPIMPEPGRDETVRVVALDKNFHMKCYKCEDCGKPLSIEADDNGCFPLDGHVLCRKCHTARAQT
Test: cell-based or functional assay

- quantity of Tes FL-GFP in focal adhesions of zyxin-null fibroblasts with Zyx FL WT-DsRed against the DsRed control (confocal immunofluorescence): 2 fold
B1: Tes FL-GFP (natural protein, UniProt Q9UGI8 1-421, looked up)
chain: MDLENKVKKMGLGHEQGFGAPCLKCKEKCEGFELHFWRKICRNCKCGQEEHDVLLSNEEDRKVGKLFEDTKYTTLIAKLKSDGIPMYKRNVMILTNPVAAKKNVSINTVTYEWAPPVQNQALARQYMQMLPKEKQPVAGSEGAQYRKKQLAKQLPAHDQDPSKCHELSPREVKEMEQFVKKYKSEALGVGDVKLPCEMDAQGPKQMNIPGGDRSTPAAVGAMEDKSAEHKRTQYSCYCCKLSMKEGDPAIYAERAGYDKLWHPACFVCSTCHELLVDMIYFWKNEKLYCGRHYCDSEKPRCAGCDELIFSNEYTQAENQNWHLKHFCCFDCDSILAGEIYVMVNDKPVCKPCYVKNHAVVCQGCHNAIDPEVQRVTYNNFSWHASTECFLCSCCSKCLIGQKFMPVEGMVFCSVECKKRMS
